Experimental data reported in article PMC6077249, “Insights into Centromere DNA Bending Revealed by the Cryo-EM Structure of the Core Centromere Binding Factor 3 with Ndc10”.

B1: CDEIII labeled (dsDNA)
DNA 1: AATATTAGTGTATTTGATTTCCGAAAGTTAAA
DNA 2: TTTAACTTTCGGAAATCAAATACACTAATATT
B2: CDEIII unlabeled competitor (dsDNA)
DNA 1: B1 DNA 1
DNA 2: B1 DNA 2

Assays:
Cep3 full length = Cep3 full length (Saccharomyces cerevisiae, UniProt P40969 1-608); assay: EMSA; DNA 1.6 uM, protein 6.4 uM; binds tightly; EMSA: 25 mM HEPES pH 8.0, 200 mM KCl, 2 mM DTT, 10% glycerol, 0.02% NP-40, 10 mM MgCl2, 10 uM ZnCl2; room temperature 45 min; native PAGE at 4 C; settings: protein: recombinant; tags: N-terminal His; chain copies: 2; label: fluorescent label, singly or doubly labeled
Ctf13;Skp1;Cep3ΔN [1] = molecular target: T1, Ctf13;Skp1;Cep3ΔN (Saccharomyces cerevisiae;Saccharomyces …, UniProt P35203;P52286;P40969 1-478;1-194;47-608, ||); assay: EMSA; DNA 1.6 uM; EMSA: 25 mM HEPES pH 8.0, 200 mM KCl, 2 mM DTT, 10% glycerol, 0.02% NP-40, 10 mM MgCl2, 10 uM ZnCl2; room temperature 45 min; native PAGE at 4 C; settings: protein: recombinant;recombinant;recombinant; tags: C-terminal CBP;;N-terminal His; copies: 1;1;2; label: fluorescent label, singly or doubly labeled
Cep3ΔN = Cep3ΔN (Saccharomyces cerevisiae, UniProt P40969 47-608); assay: as above; settings: protein: recombinant; tags: N-terminal His; chain copies: 2; label: fluorescent label, singly or doubly labeled
Ctf13;Skp1;Cep3ΔN [2] = molecular target: T1, Ctf13;Skp1;Cep3ΔN; assay: competition; 80 uM unlabeled competitor, 50x; competes labeled CDEIII; EMSA: 25 mM HEPES pH 8.0, 200 mM KCl, 2 mM DTT, 10% glycerol, 0.02% NP-40, 10 mM MgCl2, 10 uM ZnCl2; room temperature 45 min; native PAGE at 4 C; settings: protein: recombinant;recombinant;recombinant; tags: C-terminal CBP;;N-terminal His; copies: 1;1;2

T1 sequence (P35203 whole entry, stated change not applied, chain 1 of 3): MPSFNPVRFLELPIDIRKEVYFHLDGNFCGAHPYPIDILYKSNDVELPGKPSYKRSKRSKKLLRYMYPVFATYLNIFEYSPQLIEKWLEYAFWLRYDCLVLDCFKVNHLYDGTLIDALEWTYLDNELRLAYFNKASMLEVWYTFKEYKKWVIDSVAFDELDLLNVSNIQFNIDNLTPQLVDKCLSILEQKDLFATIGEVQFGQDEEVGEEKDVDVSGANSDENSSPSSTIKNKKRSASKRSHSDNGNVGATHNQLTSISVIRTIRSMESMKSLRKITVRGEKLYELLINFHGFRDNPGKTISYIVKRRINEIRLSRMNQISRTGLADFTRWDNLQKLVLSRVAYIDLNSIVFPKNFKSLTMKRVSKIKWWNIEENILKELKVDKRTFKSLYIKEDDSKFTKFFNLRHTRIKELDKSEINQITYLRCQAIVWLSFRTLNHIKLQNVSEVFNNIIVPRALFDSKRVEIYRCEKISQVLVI
T1 sequence (P52286 whole entry, stated change not applied, chain 2 of 3): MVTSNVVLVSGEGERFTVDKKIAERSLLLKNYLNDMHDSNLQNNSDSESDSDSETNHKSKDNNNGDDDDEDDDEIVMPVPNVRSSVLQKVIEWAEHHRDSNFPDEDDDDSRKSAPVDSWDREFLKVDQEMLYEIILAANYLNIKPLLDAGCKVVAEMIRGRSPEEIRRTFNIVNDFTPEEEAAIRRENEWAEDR
T1 sequence (P40969 47-608, stated change not applied, chain 3 of 3): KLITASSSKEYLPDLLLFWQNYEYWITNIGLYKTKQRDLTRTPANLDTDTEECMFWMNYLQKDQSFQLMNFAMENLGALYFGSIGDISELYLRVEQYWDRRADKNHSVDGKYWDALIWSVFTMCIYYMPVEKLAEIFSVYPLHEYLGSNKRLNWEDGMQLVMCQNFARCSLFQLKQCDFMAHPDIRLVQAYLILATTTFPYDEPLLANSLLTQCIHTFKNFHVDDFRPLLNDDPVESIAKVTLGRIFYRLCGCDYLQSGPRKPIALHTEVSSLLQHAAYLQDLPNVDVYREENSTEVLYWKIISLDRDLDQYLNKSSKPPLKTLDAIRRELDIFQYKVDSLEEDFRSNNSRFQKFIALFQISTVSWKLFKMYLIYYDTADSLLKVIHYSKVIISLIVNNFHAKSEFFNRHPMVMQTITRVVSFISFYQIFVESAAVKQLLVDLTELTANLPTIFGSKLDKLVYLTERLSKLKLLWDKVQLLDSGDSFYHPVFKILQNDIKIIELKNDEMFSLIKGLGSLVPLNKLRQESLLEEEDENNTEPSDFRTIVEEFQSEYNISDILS
Cep3 full length, sequence (P40969 whole entry): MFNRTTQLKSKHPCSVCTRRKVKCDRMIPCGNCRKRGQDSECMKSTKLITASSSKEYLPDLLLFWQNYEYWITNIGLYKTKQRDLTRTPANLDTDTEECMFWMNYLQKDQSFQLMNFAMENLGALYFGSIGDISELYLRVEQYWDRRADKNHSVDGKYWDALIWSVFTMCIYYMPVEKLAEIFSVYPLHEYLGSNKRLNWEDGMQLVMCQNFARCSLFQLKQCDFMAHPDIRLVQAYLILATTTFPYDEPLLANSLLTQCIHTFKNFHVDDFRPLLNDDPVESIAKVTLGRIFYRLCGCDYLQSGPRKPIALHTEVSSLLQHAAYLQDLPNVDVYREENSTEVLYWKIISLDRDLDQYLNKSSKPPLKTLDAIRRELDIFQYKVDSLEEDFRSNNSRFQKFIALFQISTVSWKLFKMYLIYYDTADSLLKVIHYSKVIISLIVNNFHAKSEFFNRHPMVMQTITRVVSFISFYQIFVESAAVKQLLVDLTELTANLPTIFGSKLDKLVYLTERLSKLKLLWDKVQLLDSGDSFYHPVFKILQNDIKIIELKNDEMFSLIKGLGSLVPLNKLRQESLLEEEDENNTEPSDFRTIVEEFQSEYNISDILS
Cep3ΔN, sequence (P40969 47-608, stated change not applied): as the sequence (P40969 47-608, stated change not applied, chain 3 of 3) above

Binder	binding result (Cep3 full length)	binding result (Ctf13;Skp1;Cep3ΔN [1])	binding result (Cep3ΔN)	binding result (Ctf13;Skp1;Cep3ΔN [2])
B1	binds	binds	no binding	–
B2	–	–	–	binds
